Reference: patent publication US20100222256A1

Target: CXCR4 ligand
Assay: cell-based or functional assay

With T140 (peptide) the EC50 (nM): anti-HIV activity, concentration where MT-4 cell death by HIV-1 (IIIB) infection is inhibited by 50% (MTT method) was 3.3 nM.
